Measured values reported in article PMC8453022, “A New Subfamily of Glycoside Hydrolase Family 30 with Strict Xylobiohydrolase Function” (Frontiers in Molecular Biosciences, 2021).
Each block holds one molecule with its values, some of them ahead of it.

Assays:
[1] = molecular target: T1, AcXbh30A-CD (Acetivibrio clariflavus, UniProt G8LU16); test: pNP-X2 hydrolysis, non-linear competitive inhibition fit; type: biochemical; conditions: competitive product inhibition; substrate pNP-X2; 30 mM sodium acetate pH 4.0, 0.02 mg/ml BSA, 65 C; read-out: AcXbh30A pNP-X2 kinetic values^a ^, ^b / 116.4 ± 3.23 μM
T1 construct: gene Clocl_1795; GH30 catalytic domain only, secretion leader and C-terminal type I dockerin removed, C-terminal His-tag, pET28 expression, ca. 50 kDa, apparent monomer
T1 sequence (G8LU16 29-455 limits assumed): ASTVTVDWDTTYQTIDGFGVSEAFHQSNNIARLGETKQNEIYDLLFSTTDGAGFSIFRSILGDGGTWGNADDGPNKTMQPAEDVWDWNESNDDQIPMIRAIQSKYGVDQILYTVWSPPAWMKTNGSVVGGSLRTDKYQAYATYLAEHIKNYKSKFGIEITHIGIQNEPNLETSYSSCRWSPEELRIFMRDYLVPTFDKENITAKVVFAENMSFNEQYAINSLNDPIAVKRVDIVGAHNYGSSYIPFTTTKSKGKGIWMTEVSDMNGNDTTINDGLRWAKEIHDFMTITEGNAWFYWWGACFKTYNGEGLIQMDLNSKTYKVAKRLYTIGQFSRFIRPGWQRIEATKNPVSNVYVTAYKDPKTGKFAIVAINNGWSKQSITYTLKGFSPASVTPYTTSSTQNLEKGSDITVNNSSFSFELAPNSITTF
Description: pNP-X2 hydrolysis, non-linear competitive inhibition fit on AcXbh30A-CD

[2] = substrate: O=[N+]([O-])c1ccc(O[C@@H]2OC[C@@H](O[C@@H]3OC[C@@H](O)[C@H](O)[C@H]3O)[C@H](O)[C@H]2O)cc1; test: purified protein; type: biochemical, Acetivibrio clariflavus; conditions: 30 mM sodium acetate pH 4.0, 0.02 mg/ml BSA, 65 C, 10 min

Ki [1]: 2.4 mM
Molecule: OC1OC[C@@H](O[C@@H]2OC[C@@H](O)[C@H](O)[C@H]2O)[C@H](O)[C@H]1O (some centres unmarked) [X2]

B1: AcXbh30A-CD (Acetivibrio clariflavus DSM 19732) (protein)
chain: T1 sequence (G8LU16 29-455 limits assumed)
notes: GH30 catalytic domain only, secretion leader and C-terminal type I dockerin removed, C-terminal His-tag, pET28 expression, ca. 50 kDa, apparent monomer
Km [2]: 116.4 ± 3.23 µM | Vmax [2]: 183.1 ± 1.13 U mg^−1 | kcat [2]: 152.7 s⁻¹ | kcat/Km [2]: 1,311.6 s^−1 mM^−1
